Assay results from patent US20220289819A1 (GREEN CROSS, published 2022).

B2: hCEACAM1-Fc (Fc fusion)
chain: QLTTESMPFNVAEGKEVLLLVHNLPQQLFGYSWYKGERVDGNRQIVGYAIGTQQATPGPANSGRETIYPNASLLIQNVTQNDTGFYTLQVIKSDLVNEEATGQFHVYPELPKPSISSNNSNPVEDKDAVAFTCEPETQDTTYLWWINNQSLPVSPRLQLSNGNRTLTLLSVTRNDTGPYECEIQNPVSANRSDPVTLNVTYGPDTPTISPSDTYYRPGANLSLSCYAASNPPAQYSWLINGTFQQSTQELFIPNITVNNSGSYTCHANNSVTGCNRTTVKTIIVTELSPVVAKPQIKASKTTVTGDKDSVNLTCSTNDTGISIRWFFKNQSLPSSERMKLSQGNTTLSINPVKREDAGTYWCEVFNPISKNQSDPIMLNVNYNALPQENGLSPG
modifications: biotin-labeled when used as the soluble partner (sites not given)
notes: also called biotin-labeled hCEACAM1-Fc; not shown: pr

How the values were obtained:
[1] = biological target: T1, hCEACAM6-Fc (human), P40199; test: ELISA, coated hCEACAM6-Fc (2.5 µg/mL), biotin-labeled hCEACAM1-Fc titrated from 150 µg/mL; conditions: remark: other sources report otherwise
T1 chain: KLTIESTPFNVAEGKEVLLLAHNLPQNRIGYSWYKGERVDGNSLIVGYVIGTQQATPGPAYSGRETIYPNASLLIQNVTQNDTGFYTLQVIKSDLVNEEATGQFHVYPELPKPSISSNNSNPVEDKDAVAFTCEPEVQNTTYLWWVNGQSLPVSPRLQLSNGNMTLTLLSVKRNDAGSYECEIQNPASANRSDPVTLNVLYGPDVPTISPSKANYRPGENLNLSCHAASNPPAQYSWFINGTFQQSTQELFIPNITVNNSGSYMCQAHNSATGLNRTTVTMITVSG

[2] = biological target: T1, hCEACAM6-Fc (human), P40199; test: ELISA, hCEACAM6-Fc coated, biotin-labeled hCEACAM1-Fc titrated, streptavidin-peroxidase detection; conditions: remark: other sources report otherwise
[3] = biological target: the molecule itself; test: ELISA, coated hCEACAM1-Fc (2.5 µg/mL), biotin-labeled hCEACAM1-Fc titrated from 150 µg/mL
Method: (§1) The hCEACAM1-Fc prepared in Example 5.1 was diluted with PBS to a concentration of 2.5 μg/mL, and then 100 μL each of the resultant was added into a NUNC immuno module (NUNC, 468667) plate and coated at 4° C. overnight. On the next day, after washing with PBS (to which 0.05% Tween 20 was added), 300 μL of PBS (to which 1% BSA was added) was added to each well of the coated plate, and blocking was performed by reacting at room temperature for 2 hours. In addition, after washing 3 times with PBS (to which 0.05% Tween 20 was added), biotin-labeled hCEACAM1-Fc was serially diluted 3-fold starting from a concentration of 150 μg/mL, and added into 11 wells in the plate coated with hCEACAM1-Fc. The last well was added only with PBS to which 1% BSA was added. The wells were reacted at 37° C. for 1 hour. After 1 hour, each well was washed 3 times by adding 300 μL of PBS (to which 0.05% Tween 20 was added), and then streptavidin-peroxidase polymer (Sigma, S2438-250UG) was diluted at a 1:5,000 ratio in PBS (to which 1% BSA was added), 100 μL each of the resultant was added into each well, and reacted at 37° C. for 40 minutes. […] To terminate the reaction, an equal amount of sulfuric acid (Sigma-Aldrich, 339741) was added and the OD value was measured at 450 nm wavelength using an ELISA reader.

[4] = biological target: the molecule itself; test: ELISA, hCEACAM1-Fc coated, biotin-labeled hCEACAM1-Fc titrated, streptavidin-peroxidase detection
Method: as §1

[5] = biological target: T2, hCEACAM1 (R&D Systems, Cat. No. 2244-CM) (human, UniProt P13688 35-428); test: BLI (Octet QKe), hCEACAM1 on anti-His biosensor, antibody 6.25-400 nM in solution
T2 construct: Anti-His (His1K) biosensors were used, which implies a His tag
T2 sequence: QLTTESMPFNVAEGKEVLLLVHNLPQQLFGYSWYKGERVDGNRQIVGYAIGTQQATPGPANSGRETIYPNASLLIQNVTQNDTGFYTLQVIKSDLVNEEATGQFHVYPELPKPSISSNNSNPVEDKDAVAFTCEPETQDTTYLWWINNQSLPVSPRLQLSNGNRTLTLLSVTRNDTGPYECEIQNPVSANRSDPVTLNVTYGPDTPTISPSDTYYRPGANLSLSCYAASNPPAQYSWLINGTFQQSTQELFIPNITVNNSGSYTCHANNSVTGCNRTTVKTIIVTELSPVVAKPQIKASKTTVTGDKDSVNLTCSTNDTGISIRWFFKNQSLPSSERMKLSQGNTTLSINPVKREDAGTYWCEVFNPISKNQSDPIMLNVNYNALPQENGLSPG
Method: Quantitative binding strength of the anti-CEACAM1 antibody to CEACAM1 was measured using the Octet QKe (Pall ForteBio). The anti-CEACAM1 antibody was subjected to a ½ concentration dilution 6 times at a concentration of 400 nM, and the antibodies at concentrations of 400 nM, 200 nM, 100 nM, 50 nM, 25 nM, 12.5 nM, and 6.25 nM were added into a Greiner 96-well-plate (Greiner, Cat. No. 655209) in an amount of 200 μL each in a row, and the last well was added at a concentration of 0 nM. In another row, hCEACAM1 (R&D Systems, Cat. No. 2244-CM) was diluted to a concentration of […], and was added in an amount of 200 μL each in a row.
Washing buffer, neutralization buffer, and baseline buffer were diluted 10 times with Reagent/Kinetics buffer (10×) (Fortebio, Cat. No. 18-1092) and was added in an amount of 200 μL in each row, and regeneration buffer was added in an amount of 200 μL in a row. A separate Greiner 96-well-plate was prepared, and Reagent/Kinetics buffer (IX) was added in an amount of 200 μL to as many wells as the number of biosensors to be used, and the Biosensors/Anti-His(His1K) (Fortebio, Cat. No. 18)-5120) Cassette was mounted.

hCEACAM1-Fc [6] = biological target: B2; test: competition ELISA: antibody titrated from 60 µg/mL, mixed with biotin-labeled hCEACAM1-Fc, added to coated hCEACAM1-Fc
Method: (§2) In another 96-well-plate, anti-CEACAM1 antibody was serially diluted 2-fold starting from a concentration of 60 μg/ml, and added into 11 wells, and the last well was added only with PBS to which 1% BSA was added, and then biotin-labeled hCEACAM1-Fc was added in the same amount as the anti-CEACAM1 antibody (which was diluted to 0.5 μg/mL), and reacted at room temperature for 1 hour. After 1 hour, 100 μL each of a mixture of the anti-CEACAM1 antibody and the biotin-labeled hCEACAM1-Fc were added to the blocked plate and reacted again at room temperature for 1 hour.
(§3) After 1 hour, each well was washed 3 times by adding 300 μL of PBS (to which 0.05% Tween 20 was added) thereto, and then streptavidin-peroxidase polymer (Sigma, S2438-250UG) was diluted at a 1:5,000 ratio in PBS (to which 1% BSA was added), 100 μL each of the resultant was added to each well, and reacted at 37° C. for 40 minutes. Each well where the reaction was completed was washed 3 times by adding 300 μL of PBS (to which 0.05% Tween 20 was added), and then 100 μL of TMB microwell peroxidase substrate (KPL, 50-76-03) was added thereto and reacted for 5 minutes. To terminate the reaction, an equal amount of sulfuric acid (Sigma-Aldrich, 339741) was added and the OD value was measured at 450 nm wavelength using an ELISA reader.

hCEACAM1-Fc [7] = biological target: B2; test: competition ELISA: antibody titrated from 60 µg/mL, mixed with biotin-labeled hCEACAM1-Fc, added to coated hCEACAM6-Fc
Method: (§4) In another 96-well-plate, the anti-CEACAM1 antibody was serially diluted 2-fold starting from a concentration of 60 μg/mL and added into 11 wells, and the last well was added with only PBS (to which 1% BSA was added), and then biotin-labeled hCEACAM 1-Fc was added in the same amount as the diluted anti-CEACAM1 antibody to a concentration of 0.5 μg/mL, and reacted at room temperature for 1 hour. After 1 hour, 100 μL each of a mixture of the anti-CEACAM1 antibody and the biotin-labeled hCEACAM1-Fc were added to the blocked plate and reacted again at room temperature for 1 hour.
(§5) After 1 hour, each well was washed 3 times by adding 300 μL of PBS (to which 0.05% Tween 20 was added) thereto, and then streptavidin-peroxidase polymer (Sigma, S2438-250UG) was diluted at a 1:5,000 ratio in PBS (to which 1% BSA was added), and 100 μL each of the resultant was added to each well, and reacted at 37° C. for 40 minutes. Each well where the reaction was completed was washed 3 by adding 300 μL of PBS (to which 0.05% Tween 20 was added) thereto, and then 100 μL each of TMB microwell peroxidase substrate (KPL, 50-76-03) was added thereto, and reacted for 5 minutes. To terminate the reaction, an equal amount of sulfuric acid (Sigma-Aldrich, 339741) was added and the OD value was measured at 450 nm wavelength using an ELISA reader.

[8] = biological target: T2, hCEACAM1 (R&D Systems, Cat. No. 2244-CM); test: not stated at this place; presumably the BLI of Experimental Example 4; summary statement in the description, no assay named
hCEACAM1-Fc [9] = biological target: B2; test: competition ELISA, hCEACAM1-Fc coated, antibody pre-mixed with hCCM1-Fc-biotin 500 ng/mL; blocked interaction hCEACAM1-Fc/hCEACAM1-Fc
Method: as §2, §3

hCEACAM1-Fc [10] = biological target: B2; test: competition ELISA, hCEACAM6-Fc coated, antibody pre-mixed with biotin-labeled hCEACAM1-Fc; blocked interaction hCEACAM1-Fc/hCEACAM6-Fc
Method: as §4, §5

B1: hCEACAM1-Fc, P13688 35-428 (Fc fusion, not shown: a dimerising Fc or GST)
chain: QLTTESMPFNVAEGKEVLLLVHNLPQQLFGYSWYKGERVDGNRQIVGYAIGTQQATPGPANSGRETIYPNASLLIQNVTQNDTGFYTLQVIKSDLVNEEATGQFHVYPELPKPSISSNNSNPVEDKDAVAFTCEPETQDTTYLWWINNQSLPVSPRLQLSNGNRTLTLLSVTRNDTGPYECEIQNPVSANRSDPVTLNVTYGPDTPTISPSDTYYRPGANLSLSCYAASNPPAQYSWLINGTFQQSTQELFIPNITVNNSGSYTCHANNSVTGCNRTTVKTIIVTELSPVVAKPQIKASKTTVTGDKDSVNLTCSTNDTGISIRWFFKNQSLPSSERMKLSQGNTTLSINPVKREDAGTYWCEVFNPISKNQSDPIMLNVNYNALPQENGLSPG
modifications: here or on the partner: biotin-labeled when used as the soluble partner (sites not given)
B1 was tested, and the EC50 [1] was 0.305 µg/mL and the EC50 (read off the curve) [2] was 0.3 µg/mL.

B2 was tested, and the EC50 [3] was 0.286 µg/mL and the “EC50 (read off the curve)” value [4] was about 0.3 µg/mL.

B3: anti-CEACAM1 antibody (antibody, V domains shown)
VH: EVQLLESGGGLVQPGGSLRLSCAASGFTFSNYAMSWVRQAPGKGLEWVSVISHGGGSIYYADSVKGRLTISRDNSKNTLYLQMNSLRAEDTAVYYCARDPTKGYAPTFDYWGQGTLVTVSS
VL: QSVLTQPPSASGTPGQRVTISCSGSSSNIGNNYVSWYQQLPGTAPKLLIYADSRRPSGVPDRFSGSKSGTSASLAISGLRSEDEADYYCGAWDLSLNGYVFGGGTKLTVLG
notes: also called anti-CEACAM1 antibody according to an embodiment
Work on B3 yielded a Kd [5] of 3.39 nM, a koff [5] of 0.000567 s⁻¹ and a kon [5] of 163000 M⁻¹ s⁻¹. The IC50 (hCEACAM1-Fc [6]) was 1.05 µg/mL, the IC50 (hCEACAM1-Fc [7]) was 0.795 µg/mL and the Kd [8] was 3.36 nM. For the same binder, the “IC50 (read off the curve)” value (hCEACAM1-Fc [9]) was about 0.8 µg/mL and the “IC50 (read off the curve)” value (hCEACAM1-Fc [10]) was about 1 µg/mL.
